What all share (assay): Kinetic parameters of conversion of peptide substrates by murine isoQC
Holding throughout (type): biochemical, mouse
Common to all, as to settings: pH 8.0; 30.0 °C

Substrate in data set [1]: NC(=O)CC[C@H](N)C(=O)N[C@@H](CCC(=O)O)C(=O)O
Substrate in data set [2]: NC(=O)CC[C@H](N)C(=O)NCC(=O)N1CCC[C@H]1C(=O)O
Substrate in data set [3]: C[C@H](NC(=O)[C@H](Cc1ccc(O)cc1)NC(=O)[C@@H](N)CCC(N)=O)C(=O)O

B1: mouse-isoQC (Mus musculus; I74N) (protein)
chain: EEMSRSRDLRVPLNGSLSEAKLRLVVGQLDPQRLWGTFLRPLLIVRPPGSSGNLQVRKFLEATLQSLSAGWHVELDPFTASTPLGPLDFGNVVATLDPGAARHLTLACHYDSKFFPPGLPPFVGATDSAVPCALLLELVQALDAMLSRIKQQAAPVTLQLLFLDGEEALKEWGPKDSLYGSRHLAQIMESIPHSPGPTRIQAIELFVLLDLLGASSPIFFSHFPRTARWFQRLRSIEKRLHRLNLLQSHPQEVMYFQPGEPPGPVEDDHIPFLRRGVPVLHLIATPFPAVWHTPADTEANLHPPTVHNLSRILAVFLAEYLGL
notes: starting with codon 43 (Glu 43) of the open reading frame (counting from methionine II); yeast alpha-factor secretion signal (N); made in house; host or cells: Pichia pastoris X-33
As for B1, the figures for the Km in data set [1], in data set [2] and in data set [3] were 470 ± 40 µM, 102 ± 6 µM and 58 ± 4 µM, respectively. In addition, the figures for the kcat in data set [1], in data set [2] and in data set [3] were 7.79 ± 0.44 s⁻¹, 11.4 ± 0.4 s⁻¹ and 22.9 ± 0.86 s⁻¹, respectively. The figures for the kcat/Km in data set [1], in data set [2] and in data set [3] were 16880 ± 2320 M⁻¹ s⁻¹, 111440 ± 6810 M⁻¹ s⁻¹ and 394230 ± 21360 M⁻¹ s⁻¹, respectively.

The values above are taken from US8889709B2, “Use of isoQC inhibitors in the treatment and prevention of inflammatory diseases or conditions” (Probiodrug AG, priority 2006, dated 2014).
